# Data: CN117138036A (NANJING RONGJIEKANG BIOTECHNOLOGY CO LTD, dated 2023)
# Experiments:
# IL-4Rα = IL-4Rα (UniProt P24394 26-232, limits assumed); assay: cell-based or functional assay
# IL-5 = IL-5 (human, UniProt P05113 20-134); assay: cell-based or functional assay
# IL-5, sequence (P05113 20-134 limits assumed): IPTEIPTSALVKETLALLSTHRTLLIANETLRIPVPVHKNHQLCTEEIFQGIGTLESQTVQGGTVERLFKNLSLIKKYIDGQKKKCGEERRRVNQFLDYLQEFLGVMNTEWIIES
Binder,"EC50, 中和IL-4诱导的TF-1细胞增殖 (IL-4Rα)","EC50, 中和IL-13诱导的TF-1细胞增殖 (IL-4Rα)","EC50, 中和IL-5诱导的TF-1细胞增殖 (IL-5)"
"reslizumab (antibody, V domains shown) VH: EVQLVESGGGLVQPGGSLRLSCAVSGLSLTSNSVNWIRQAPGKGLEWVGLIWSNGDTDYNSAIKSRFTISRDTSKSTVYLQMNSLRAEDTAVYYCAREYYGYFDYWGQGTLVTVSS VL: DIQMTQSPSSLSASVGDRVTITCLASEGISSYLAWYQQKPGKAPKLLIYGANSLQTGVPSRFSGSGSATDYTLTISSLQPEDFATYYCQQSYKFPNTFGQGTKVEVK",,,0.122 nM
"dupilumab (antibody, V domains shown) VH: EVQLVESGGGLEQPGGSLRLSCAGSGFTFRDYAMTWVRQAPGKGLEWVSSISGSGGNTYYADSVKGRFTISRDNSKNTLYLQMNSLRAEDTAVYYCAKDRLSITIRPRYYGLDVWGQGTTVTVSS VL: DIVMTQSPLSLPVTPGEPASISCRSSQSLLYSIGYNYLDWYLQKSGQSPQLLIYLGSNRASGVPDRFSGSGSGTDFTLKISRVEAEDVGFYYCMQALQTPYTFGQGTKLEIKR",0.13 nM,0.178 nM,

# Continued, values first:
"EC50, 中和IL-4诱导的TF-1细胞增殖 (IL-4Rα)","EC50, 中和IL-13诱导的TF-1细胞增殖 (IL-4Rα)","EC50, 中和IL-5诱导的TF-1细胞增殖 (IL-5)",Binder
0.281 nM,0.229 nM,,4E9V0 (VHH) VHH: QVQLVESGGGSVQAGGSLRLSCAASGDFYCMAWFRQAPGKEREGVATIRSGGRSTYYADSVKGRFTISKDNAKDTLYLQMNSLKPEDTAMYYCAVGVDGNCRNYWGQGTQVTVSS
,,0.336 nM,2B3 (VHH) VHH: QVQLVESGGGSVQAGGSLRLSCAASGNTFSFSTYCMGWFRQSPGKEREGSLATIYDGSTAYAGSVKGRFTISVDNAKNILYLQMNNLKPEDTAMYYCAAAKYCMFWSDPSYWGQGTQVTVSS
